Laboratory results published in the nanobody polyreactivity screen of Harvey et al. (2022).

Assay: yeast display, Sf9 membrane polyspecificity reagent, FACS + sequencing; frameworks hold sequencing errors
Summary of the method: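 Sorting gates, low and high (top ~1%), were placed on anti-HA fluorescence to track expression and on streptavidin fluorescence to track reagent binding. A clone's polyreactivity label is taken from the gate it came out of. The reagent was 10% biotinylated, detergent-solubilized Sf9 membrane, applied for 1 hour at 4 °C to galactose-induced yeast display cells.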

Sequence	polyreactivity (PSR sort gate)
QVQLVESGGGLVQAGGSLRLSCAASGRIFPGYAMGWYRQAPGKERELVAAISASGGSTYYADSVKGRFTISRDNAKNTVYLQMNSLKPEDTAVYDCNAVYRLIRFDYWGQGTQVTVSS	high polyreactivity
QVQHLETGGGLDQAGGSLRLSCAASVRTFGANAMAWYRQAPGNERALVAAITGRGGSTYYADSVKGRFTFSRDNAKNTVYLQMNSLKPEDTAVYYCAKPFKRGYGYDYWGQGTQVTVSS	low polyreactivity
QVQLVESGGGLVQAGGSLRLICAASGFISVRNAMGWYRQGPGKERELGAAISSGDTTDYADSVKGSFTISRDNAKNTVYLQMNSLKPEDTAVYYCAAVYYGRYYYWGQGTQVTVSS	low polyreactivity
QVQLVESGVGLVQAAGSLRLSCAASGSIFPDNAMGWSRQAPGKERELVAAIDKGTGSTNYADSVKGRFTISRDNAKNTVYLQMNSLKPEDTAVYYCATYVVTLYWWYTYDYWGQGTQVTVSS	low polyreactivity
QVQLVESGGGLVQAGGSLRLSCAASGSTFVRNAMGWYRQAPGKERELVAAISTRGGSTSYADSVKGRFTISRDNAKNTVYLQMNCLKPEDTAVYYCAKVHAYSQGIRHGYWGQGTQVTVSS	low polyreactivity
QVQLVESGGGLVQAGGSLRLSCAASGLTFGNYAMGWYRQTPGKERELVAAISKRGGTTYYADSVKGRFTISRDTAKNTVYLQMNSLKPEDTAVYYCSARDYSHPTDDNYWGPGTQVTVSS	high polyreactivity
QVQLVESGGGLVQAGGSLRLSCAASGIIFRYYAMGWYRQAPGKERELVAAISWSTDSTYYADSVKGRFTISRDNAKNTVYLPMNSLKPEDTAVYYCNARPSYYRISPYDYWGQGTQVTVSS	high polyreactivity
QVQLVESGGGLVQAGGSLRLSCAASGRTFRNNAMGWYRQAPGKERELVAAITSGGSTNYADSVKGRFTISRDNAKNTVYLQMNSLKPEDTAVYYCAKDFWYVTGGWSSGMDYWGQGTQVTVSS	low polyreactivity
QVQLVESGGGLVQAGGSLRLSCAASGIIFDFYAMGWYRQAPGKERELVAAINSGSGSTYYADSVKGRFTISRDNAKNTVYLQMNSLKPEDTAVYYCAADGLSATLTWYSYDYWGQGTQVTVSS	low polyreactivity
QVQLVESGGGLVQAGGSLRLICAASGRTFQYNAMGWYRQAPGKERELVAAISARAGSTYYADSVKGRFTISRDNAKNTVYLQMNRLKPEDTAVYYCAARAWTRSVPYGFYYWGQGTQVTVSS	high polyreactivity
QVQLVESGGGLVQAGGSLRLSCAASGRTFGAYAMGWYRQAPGKERELVASISRSGGTTYYADSVKGRFTISRDTAKNTVYLQMNSLKPEDTAVYYCAAQYVRYGHYYWGQATQVTVSS	high polyreactivity
QVQLVESGGGLVQAGGSLRLSCAASGSTFDGNAMGWYRPAPGKERELVAAITWRDGSTSYADSVKGRFTISRDNAKNTVYLQMNSLKPEDTAVYYCNADPGYLDEEYWGQGTQVTVSS	low polyreactivity
QVQLVESGGGLVQAGGSLRLSCAASGIIFAYYAMGWYRQAPGKERELVAAISDNGGRTFYADSVKGRFTISRDNAKNTVYLQMNSLKPEDTAVYYCAAVVYSEYYYWGQGTQVTVSS	low polyreactivity
QVQLVESGGGLVQAGGSLRLSCAASGRILWDYAMGWYRQAPGKERELVAAISTSSGSTYYADSVKGRFTISRDNAKNTVKLQMNSLKPEHTAVYYCAADNDYSPPWFEYWGQGTQVTVSS	low polyreactivity
QVQLVESGGGLVQAGGSLRLSCAASGRIFPTNAMGWYRQAPGKERELVASIDSGGSTKYADSVKGRFTISRDNAKNTVYLLMNSLKPEDTAVYYRALQVLNYDYWGQGTQVTVSS	low polyreactivity
QVQLVESGGGLFQAGGSLRLSCAASGFTFHRNAMGWYRQAPGKERELVAAITLNGGSSTYYADSVKGRFTISRDNAKNTVYLQMNSLKAEDTAVYSCALDSYSYTFSKNSDPAEYEYWGQGTQVTVSS	low polyreactivity

Sequence	polyreactivity (PSR sort gate)
QVQLVESGGGLVQAGGSLRLSCAASGRILGRNAMGWYRQAPGKEREFVAGISYSGTSTYYADSVKGRFTISRDNAKNTVYLQMNSLKPEDTAVYYCNVKNQVYRRYYYWGQGTQVTVSS	high polyreactivity
QVQLHESGGGLVQAGRGLRLSCPASGSITSTGFMGSYRQPPGKEREPVAAIAPGTTTYYADSVKGRFTISRDNAKYTEYLQMNSLRPEDTAVYYCAVFTDNRVAFLYWGQGTQVTVSS	low polyreactivity
QVQLVESGGGLVQAGGSLRLSCAASGFTFRYNAMGWYRQAPGKERELVATISWRGTSTYYADSVKGRFTISRDNAKNTVYLQMNSLKPEDTAVYYCATRSRDQYSVSYRLDYWGQGTQVTVSS	low polyreactivity
QVQLVESGGGLVQAGGSLRLSCAASGSIFVNYAMGWYSQAPGTERELVAAISWRGGITYGVSVKGRFTISRDNAKNTVYLQMNSLKPEDTADYYSNTDGDDFFHVIYDYWAQGTQVTVSS	low polyreactivity
QVQLVESGGGLVQAGGSLRLSCAASGRTFRTNTMGWYRQAPGKERELVAAIRYIGGSTYYADSVKGRFTISRDNAKNTFYLLMNSLKPEDTAVYYCAAYRYGSRYGYEYWGQGTQVTVSS	high polyreactivity
QVQLVESGRGLVQAGGSLRLSCAASGSTFLYYAMGWSRQAPGKEMELVAVISWSGVSTYYADSVKGRFTISRDNAKTTVYLQMNSLKPEDTAVYYCAAVPVHTGSLYWGFTTGYDYWGQGTQVTVSS	low polyreactivity
QVQLVVSGGGLVQAGGSLRLSCAASGSIFYRNAMGWYRQAPGKDRELVAAISFSGGSTYYADSVKARFSISRDNAKNTVYLQMNSLKPEDTAVYYCAAEAYPSWFYVITGFGIYDYWGQGTQGTVSS	high polyreactivity
QVQLVESGGGIVQAGGSLRLSCAASGRIFTRYVMGWYRQAPGKERELVAAITGRGTTTYYADSVKGRFTISRDNAKNTVYLKMNSLKPEDTAVYYCAATYYASNPQFTTNYGYWGQGTQVTVSS	high polyreactivity
QVQLVESGGGLVQAGGSLRLSCAASGSIFVWNAMGWYRQAPGKERELVARIRYSSNTYYADSVKGRFTISRDNAKNTVYLQMNSLKPEDTAVYYCAAGSTRYAGWTYNYWGQGTQVTVSS	high polyreactivity
QVQLVESGGGLVQAGGSLRLSCAASGRTFYIYAMGWYRQAPGKERELVAAITWRGGRTYYADSVKGRFTISRDNAKNTVYLQMNSLKPVDTAVYYCNARSWYSFHPHDYWGQGTQVTVSS	high polyreactivity
QVQLVESGGGLVQAGGSLRLSCAASGITFYGYAMGWYRQAPGKERELVARISSGGTTKYADSVKGRFTISRDNAKNTVYLQMNSLKPEDTAGYYCAVGGSWWYYGFYYWGQGTQVSVSS	high polyreactivity
QVQLVESGGGLVQAGGSLRLICAASGSTSLVYAMGWYRQAPGKERDLVAAISWSGGSTYYADSVKGRFTISRDNAKNTVYLQMNSLKPEDTAVYYCAAEYYGYWEYDYWGQGTQVTVSS	high polyreactivity
QVQLVESGGGLVQAGGSLRLSCAASGIIIWYNTMGWYRQAPGKEREFVARISRRVGSTYYADSVKGRFTISRDNAKNTVYLQMNSLKPEDTAVYYCAASPYQVRYQWGNRLDYWGQGTQVTVSS	high polyreactivity
QVQLVESGGGLVQAGGSLRLSCAASGSILYLNAMGWYRQAPGKERELVATISNGGSTNYADSVKGRFTISRDNAKNTVYLQMNSLKPEDTAVYYCAAASGGTVVGEGDYWGQGTQVTVSS	low polyreactivity
QVQLVESGGGLVQAGGSLRLSCAASGFIFGDNAMGWYRQAPGKERELVAGITVSDGSTYYADSVKGRFTISRDNAKNTVYLQMNSLKPEDTAVYYCNAAGRYKPGAPYDYWGQGTQVTVSS	low polyreactivity
QVQLVESGGGLVQAGGSLRLSCAASGRIFYLNAMGWYRQAPGKERELVATISSGGSTNYADSVKGRFTISRDNAKNTVYLQMNSLKPEDTAVYYCARKSLRYSYVYRDYWGQGTQVTVSS	low polyreactivity
